# Reference: US20170267780A1
# Assays:
# [1] = molecular target: Recombinant human FcRn (human) (UniProt P55899); experiment: SPR (ProteOn), IgG immobilised, pH 6.0
# [2] = molecular target: Cyno FcRn (cynomolgus monkey) (UniProt Q8SPV9); experiment: SPR (ProteOn), IgG immobilised, cyno FcRn, pH 7.4
# [3] = molecular target: Cyno FcRn (cynomolgus monkey) (UniProt Q8SPV9); experiment: SPR (ProteOn), IgG immobilised, cyno FcRn, pH 6.0
# Fcγ IIIa (158 V) = Fcγ IIIa (158 V) (UniProt P08637); experiment: effector binding, values nM, method not stated
# Chain of Fcγ IIIa (158 V) (P08637 17-208 F176V limits assumed): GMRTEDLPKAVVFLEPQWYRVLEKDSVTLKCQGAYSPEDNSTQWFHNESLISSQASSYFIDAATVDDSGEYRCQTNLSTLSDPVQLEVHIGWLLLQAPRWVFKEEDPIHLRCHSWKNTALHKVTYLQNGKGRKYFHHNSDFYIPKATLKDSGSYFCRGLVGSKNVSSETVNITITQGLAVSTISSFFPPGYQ
# Fcγ IIb = Fcγ IIb (UniProt P31994); experiment: effector binding, values nM, method not stated
# Chain of Fcγ IIb (P31994 43-217 limits assumed): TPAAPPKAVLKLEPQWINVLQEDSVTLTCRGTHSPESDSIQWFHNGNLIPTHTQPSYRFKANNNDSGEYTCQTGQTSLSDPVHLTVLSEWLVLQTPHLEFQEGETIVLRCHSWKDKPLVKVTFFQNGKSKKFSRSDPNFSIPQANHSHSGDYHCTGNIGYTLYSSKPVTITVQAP
# C1q = C1q (UniProt P02745); experiment: effector binding, values nM, method not stated
# Chain of C1q (P02745 23-245, chain 1 of 3): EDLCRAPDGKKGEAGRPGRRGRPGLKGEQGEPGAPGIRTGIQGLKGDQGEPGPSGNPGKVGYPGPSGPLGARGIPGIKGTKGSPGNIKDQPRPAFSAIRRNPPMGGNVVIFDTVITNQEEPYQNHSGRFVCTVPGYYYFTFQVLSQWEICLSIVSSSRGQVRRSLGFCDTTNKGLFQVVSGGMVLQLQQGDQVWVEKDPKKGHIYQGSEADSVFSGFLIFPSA
# Chain of C1q (P02746 28-253, chain 2 of 3, further chain): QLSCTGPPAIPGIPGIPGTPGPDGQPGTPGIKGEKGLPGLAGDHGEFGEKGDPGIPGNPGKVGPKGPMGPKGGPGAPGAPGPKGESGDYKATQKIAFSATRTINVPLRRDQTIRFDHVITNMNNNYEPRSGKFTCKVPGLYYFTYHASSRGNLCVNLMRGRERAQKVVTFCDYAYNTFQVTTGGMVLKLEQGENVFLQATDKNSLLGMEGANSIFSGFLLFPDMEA
# Chain of C1q (P02747 29-245, chain 3 of 3, further chain): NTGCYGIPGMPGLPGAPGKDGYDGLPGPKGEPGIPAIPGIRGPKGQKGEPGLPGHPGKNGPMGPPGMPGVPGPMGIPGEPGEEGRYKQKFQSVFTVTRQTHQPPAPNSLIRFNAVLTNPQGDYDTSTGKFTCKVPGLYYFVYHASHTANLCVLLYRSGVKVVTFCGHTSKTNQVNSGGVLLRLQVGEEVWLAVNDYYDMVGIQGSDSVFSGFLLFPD
# Fcγ IIIa (158 F) = Fcγ IIIa (158 F) (UniProt P08637); experiment: effector binding, values nM, method not stated
# Chain of Fcγ IIIa (158 F) (P08637 17-208 limits assumed): as the sequence (P08637 17-208 F176V limits assumed) above, with V160F counted along it
# Fcγ IIa = Fcγ IIa (UniProt P12318); experiment: effector binding, values nM, method not stated
# Chain of Fcγ IIa (P12318 34-217 limits assumed): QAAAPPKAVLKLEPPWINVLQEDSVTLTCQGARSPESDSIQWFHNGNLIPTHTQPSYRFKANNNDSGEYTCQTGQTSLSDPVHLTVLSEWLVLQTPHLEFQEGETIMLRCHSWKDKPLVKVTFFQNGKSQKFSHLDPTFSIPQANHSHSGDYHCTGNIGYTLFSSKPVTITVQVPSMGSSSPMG
# Fcγ RIa = Fcγ RIa (UniProt P12314); experiment: effector binding, values nM, method not stated
# Chain of Fcγ RIa (P12314 16-288 limits assumed): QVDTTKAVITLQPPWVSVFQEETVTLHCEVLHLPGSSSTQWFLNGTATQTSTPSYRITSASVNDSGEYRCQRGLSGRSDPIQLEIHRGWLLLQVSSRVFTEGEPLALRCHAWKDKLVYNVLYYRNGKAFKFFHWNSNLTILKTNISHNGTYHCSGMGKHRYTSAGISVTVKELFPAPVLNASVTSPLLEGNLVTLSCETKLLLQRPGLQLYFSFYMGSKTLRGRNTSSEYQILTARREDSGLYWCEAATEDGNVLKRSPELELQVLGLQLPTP
# [4] = molecular target: Recombinant human FcRn (human) (UniProt P55899); experiment: SPR (ProteOn), IgG immobilised, pH 7.4
# Chain of Cyno FcRn (cynomolgus monkey) (Q8SPV9 24-297 limits assumed, chain 1 of 2): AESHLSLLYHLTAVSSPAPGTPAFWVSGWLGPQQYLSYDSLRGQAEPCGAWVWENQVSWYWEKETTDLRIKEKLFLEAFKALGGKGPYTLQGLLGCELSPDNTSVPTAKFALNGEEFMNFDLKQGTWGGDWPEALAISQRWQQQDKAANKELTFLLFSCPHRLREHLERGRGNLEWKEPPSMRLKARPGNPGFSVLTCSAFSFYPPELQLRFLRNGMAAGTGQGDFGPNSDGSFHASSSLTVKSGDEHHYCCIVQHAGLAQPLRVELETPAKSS
# Chain of Cyno FcRn (cynomolgus monkey) (Q8SPW0 21-119 limits assumed, chain 2 of 2, further chain): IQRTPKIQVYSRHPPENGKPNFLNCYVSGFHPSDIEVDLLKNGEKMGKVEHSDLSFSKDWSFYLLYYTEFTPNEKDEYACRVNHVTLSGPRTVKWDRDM
Kd [1] [µM],Kd [2] [µM],Kd [3] [µM],Kd (Fcγ IIIa (158 V)) [µM],Kd (Fcγ IIb) [µM],Kd (C1q) [µM],Kd (Fcγ IIIa (158 F)) [µM],Kd (Fcγ IIa) [µM],Kd (Fcγ RIa) [µM],Kd [4] [µM],Substance
0.314,8,0.275,0.245,1.95,0.482,6.06,,,,Motavizumab YTE (antibody)
,,1.92,,,0.328,4.14,0.506,0.0458,,Wildtype Motavizumab (antibody)
0.215,,,,,,,,,5.8,HB20.3 (anti-CD20) IgG1 YTE (antibody)
